In US20050042213:
Like-named read-outs stand apart in the source and are kept apart here.

Key:
[1] = tested on: T1, pro-heparanase (H60), purified recombinant human 60 kDa latent heparanase
T1 sequence: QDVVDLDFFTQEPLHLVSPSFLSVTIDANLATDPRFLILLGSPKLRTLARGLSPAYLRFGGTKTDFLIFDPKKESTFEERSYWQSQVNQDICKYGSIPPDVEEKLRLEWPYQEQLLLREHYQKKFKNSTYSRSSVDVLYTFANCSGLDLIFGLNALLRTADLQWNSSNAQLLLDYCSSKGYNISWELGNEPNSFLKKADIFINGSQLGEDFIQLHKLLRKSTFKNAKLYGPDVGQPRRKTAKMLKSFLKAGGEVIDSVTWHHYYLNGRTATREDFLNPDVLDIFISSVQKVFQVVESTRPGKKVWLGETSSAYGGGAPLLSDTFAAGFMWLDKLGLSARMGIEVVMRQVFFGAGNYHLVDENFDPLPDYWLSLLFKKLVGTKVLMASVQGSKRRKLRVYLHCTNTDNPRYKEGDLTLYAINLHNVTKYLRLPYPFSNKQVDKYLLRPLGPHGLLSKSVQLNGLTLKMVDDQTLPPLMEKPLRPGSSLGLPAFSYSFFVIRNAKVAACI

[2] = target: T2, pro-heparanase (H60), purified recombinant human 60 kDa latent heparanase
T2 chain: T1 sequence

B1: cathepsin G (Sigma, C4428) (enzyme, UniProt P08311 21-244, looked up, species assumed)
Cathepsin G: IIGGRESRPHSRPYMAYLQIQSPAGQSRCGGFLVREDFVLTAAHCWGSNINVTLGAHNIQRRENTQQHITARRAIRHPQYNQRTIQNDIMLLQLSRRVRRNRNVNPVALPRAQEGLRPGTLCTVAGWGRVSMRRGTDTLREVQLRVQRDRQCLRIFGSYDPRRQICVGDRRERKAAFKGDSGGPLLCNNVAHGIVSYGKSSGVPPEVFTRVSSFLPWIRTTMRS
- heparanase activity after treatment (DMB assay) [1]: treatment of the pro heparanase with cathepsin G or elastase activated the H60
- processing of pro-heparanase in vitro (Western blot) [1]: cathepsin G (FIG. 18) and elastase (FIG. 5), both serine proteases, cleave the pro-heparanase in-vitro, at or near the N-terminus of the H45

B2: elastase from human neutrophils (Calbiochem, 324681) (protein)
chain: IVGGRRARPHAWPFMVSLQLRGGHFCGATLIAPNFVMSAAHCVANVNVRAVRVVLGAHNLSRREPTRQVFAVQRIFENGYDPVNLLNDIVILQLNGSATINANVQVAQLPAQGRRLGNGVQCLAMGWGLLGRNRGIASVLQELNVTVVTSLCRRSNVCTLVRGRQAGVCFGDSGSPLVCNGLIHGIASFVRGGCASGLYPDAFAPVAQFVNWIDSIIQ
- heparanase activity after treatment (DMB assay) [2]: treatment of the pro heparanase with cathepsin G or elastase activated the H60
- processing of pro-heparanase in vitro (Western blot) [2]: cathepsin G (FIG. 18) and elastase (FIG. 5), both serine proteases, cleave the pro-heparanase in-vitro, at or near the N-terminus of the H45
